The values below come from paper PMC9992711, “Two-step structural changes in M3 muscarinic receptor activation rely on the coupled Gq protein cycle” (Nature Communications, 2023).

Test [1] deals with hM3R-Cerulean (human) (UniProt P20309). Briefly: FRET or BRET; CFP/YFP photometry on single live HEK293T (tsA-201) cells; labelled pair co-transfected with the remaining cognate G protein subunits (GRK2 too for Gαq-CFP with Gβ1-YFP); whole-cell patch, pipette with 0.1 mM GTP; 10 μM Oxo-M applied; room temperature. For orientation: In BRET a luciferase serves as donor, and the signal depends on an acceptor being close.

For test [2] the target is unchanged. As to the kind of experiment: FRET or BRET; CFP/YFP photometry on single live HEK293T (tsA-201) cells; labelled pair with the remaining cognate G protein subunits co-transfected (GRK2 too for Gαq-CFP with Gβ1-YFP; only the two probes for hM3R-CFP with YFP-PLCβ1); 10 μM Oxo-M applied and washed out.
Test [3] has as its target T1, mouse M1 muscarinic receptor (mM1R) (Mus musculus, UniProt P12657).
T1 construct: gene Chrm1; mM1R-YFP-CFP; wild-type mM1R
T1 sequence (P12657 1-460): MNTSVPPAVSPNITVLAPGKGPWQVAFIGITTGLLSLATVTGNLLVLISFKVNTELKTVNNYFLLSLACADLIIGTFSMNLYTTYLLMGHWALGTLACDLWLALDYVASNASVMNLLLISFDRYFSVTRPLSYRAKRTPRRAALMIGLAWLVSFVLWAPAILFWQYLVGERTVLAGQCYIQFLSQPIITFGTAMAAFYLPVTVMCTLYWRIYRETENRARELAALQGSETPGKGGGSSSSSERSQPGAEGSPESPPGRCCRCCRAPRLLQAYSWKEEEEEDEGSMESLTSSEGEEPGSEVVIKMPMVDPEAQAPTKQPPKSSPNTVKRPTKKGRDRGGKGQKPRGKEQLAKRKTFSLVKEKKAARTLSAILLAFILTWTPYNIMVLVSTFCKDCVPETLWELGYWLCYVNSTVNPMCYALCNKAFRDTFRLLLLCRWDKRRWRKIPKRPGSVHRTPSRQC
As to the kind of experiment: receptor FRET and RFP-PH translocation in HEK293T cells. The format is cell-based.

In test [4] the target is T2, human M3 muscarinic receptor (hM3R) (Homo sapiens, UniProt P20309, DEL271-484).
T2 construct: gene CHRM3; hM3R-YFP-CFP (EYFP replaces segment between Ala270 and Lys485 in ICL3; Cerulean at C-terminus)
Briefly: intramolecular receptor FRET in HEK293T cells, concentration-response. The test is classed as cell-based.

Test [5] has as its target hM3R-EYFP-Cerulean (human) (UniProt P20309).

heterotrimeric Gq protein, sequence (P50148 whole entry, looked up, one chain of several): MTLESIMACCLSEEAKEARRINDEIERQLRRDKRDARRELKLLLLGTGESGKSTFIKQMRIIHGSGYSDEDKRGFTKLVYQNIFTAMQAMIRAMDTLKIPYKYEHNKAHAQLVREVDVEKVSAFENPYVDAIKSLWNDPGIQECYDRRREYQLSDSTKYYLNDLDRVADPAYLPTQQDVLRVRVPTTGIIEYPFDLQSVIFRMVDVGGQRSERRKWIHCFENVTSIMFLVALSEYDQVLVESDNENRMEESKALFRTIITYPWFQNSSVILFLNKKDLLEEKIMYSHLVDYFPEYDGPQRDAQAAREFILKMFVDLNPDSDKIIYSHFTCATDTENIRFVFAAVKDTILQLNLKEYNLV

For the compound “Gβγ subunits (bovine Gβ1-EYFP with Gγ2) (from UniProt P62871 1-340; P59768 1-71) (complex; other documents disagree on this pair)”, the time constant τ of the FRETr increase on Oxo-M with hM3R-Cerulean (human) [1] came to 0.23 s. The compound further gave a deactivation time constant τ of FRETr after Oxo-M washout in the test with hM3R-Cerulean (human) [2] of 0.53 s. In the case of `C[N+](C)(C)CC#CCN1CCCC1=O` [Oxo-M, oxotremorine-M], the “receptor FRET and RFP-PH translocation in HEK293T cells” value in test [3] is “wild-type mM1R or hM3R plasmid showed a strong translocation of RFP-PH from the plasma membrane to cytosol by Oxo-M”. In addition, the concentration for a half-maximal effect (EC50) in test [4] stood at 112 nM. Turning to “heterotrimeric Gq protein (from UniProt P50148 1-359) (complex)”, the intramolecular FRETr of hM3R-YFP-CFP, time constant τ of step 1 on Oxo-M, intact HEK293T cells in test [5] worked out at 0.22 s.

As a reminder, the EC50 is the concentration needed to bring the measured effect to its halfway point.
